Consider one molecule from patent US20240035010, “COMPOSITIONS COMPRISING A VARIANT POLYPEPTIDE AND USES THEREOF” (Arbor Biotechnologies, Inc., published 2024).

Data set [1] deals with T1, variant nuclease T338G combination (P14R, D32R, I61R, E311R, T338G).
T1 chain: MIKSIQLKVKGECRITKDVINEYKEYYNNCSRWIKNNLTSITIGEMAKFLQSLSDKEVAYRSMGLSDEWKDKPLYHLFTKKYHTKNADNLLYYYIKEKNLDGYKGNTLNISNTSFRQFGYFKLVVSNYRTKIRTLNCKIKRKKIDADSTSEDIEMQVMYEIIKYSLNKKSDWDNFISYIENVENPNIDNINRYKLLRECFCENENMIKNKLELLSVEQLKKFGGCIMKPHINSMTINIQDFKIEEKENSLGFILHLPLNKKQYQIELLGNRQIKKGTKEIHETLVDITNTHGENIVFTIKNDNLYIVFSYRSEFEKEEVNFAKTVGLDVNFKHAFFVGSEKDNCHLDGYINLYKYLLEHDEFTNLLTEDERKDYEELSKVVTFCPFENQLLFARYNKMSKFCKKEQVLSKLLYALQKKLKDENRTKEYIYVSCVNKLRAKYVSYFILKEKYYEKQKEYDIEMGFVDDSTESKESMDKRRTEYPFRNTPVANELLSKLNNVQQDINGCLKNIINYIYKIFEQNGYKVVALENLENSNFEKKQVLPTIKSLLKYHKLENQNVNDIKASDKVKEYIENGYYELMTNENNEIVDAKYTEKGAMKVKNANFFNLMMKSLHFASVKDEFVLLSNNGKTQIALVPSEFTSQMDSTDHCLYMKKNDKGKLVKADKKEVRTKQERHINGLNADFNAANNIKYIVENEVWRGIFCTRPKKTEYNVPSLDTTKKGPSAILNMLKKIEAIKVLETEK
Description: cell_activity; PAM 5'-TTTA-3'. To be noted: tags: pcDNA3.1 expression. The method, boiled down:
(§1)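 HEK293T cells were lipofected with nuclease plasmid (pcDNA3.1 backbone) plus RNA guide plasmid, with guide omitted in negative controls. After ~72 h cells were lysed in QuickExtract and % indels were derived from NGS reads, averaged over two bioreplicates and two technical replicates.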

Data set [2] addresses T2, variant nuclease D590G combination (P14R, D32R, I61R, E311R, D590G).
T2 chain: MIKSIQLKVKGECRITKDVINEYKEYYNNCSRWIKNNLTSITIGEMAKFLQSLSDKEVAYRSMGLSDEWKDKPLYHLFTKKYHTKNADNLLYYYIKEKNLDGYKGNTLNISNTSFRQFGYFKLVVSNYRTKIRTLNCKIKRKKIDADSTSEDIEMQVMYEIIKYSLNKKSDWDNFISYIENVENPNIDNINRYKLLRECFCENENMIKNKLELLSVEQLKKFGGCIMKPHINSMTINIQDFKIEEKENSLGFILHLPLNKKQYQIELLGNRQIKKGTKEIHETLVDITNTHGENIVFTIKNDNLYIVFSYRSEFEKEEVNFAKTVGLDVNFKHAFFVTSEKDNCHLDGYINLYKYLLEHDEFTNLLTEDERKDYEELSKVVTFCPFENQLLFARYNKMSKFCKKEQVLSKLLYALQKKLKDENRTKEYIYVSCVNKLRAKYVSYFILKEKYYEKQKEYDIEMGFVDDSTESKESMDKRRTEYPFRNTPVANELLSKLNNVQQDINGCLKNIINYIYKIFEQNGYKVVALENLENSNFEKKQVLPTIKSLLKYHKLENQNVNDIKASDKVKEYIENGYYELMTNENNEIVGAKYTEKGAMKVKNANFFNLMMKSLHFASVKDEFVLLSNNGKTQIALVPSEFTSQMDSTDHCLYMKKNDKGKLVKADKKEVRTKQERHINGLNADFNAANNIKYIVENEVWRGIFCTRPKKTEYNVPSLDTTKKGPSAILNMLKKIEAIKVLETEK
Description: cell_activity; PAM 5'-TTTA-3'. The following applies: tags: pcDNA3.1 expression. The method, boiled down: as §1

B1: VEGFA crRNA ; VEGFA target (ssRNA ; dsDNA)
RNA: CUUGUUGUAUAUGUCCUUUUAUAGGUAUUAAACAACUCCAGACCACCAAUGGGCAC
DNA 1: TCCAGACCACCAATGGGCAC
DNA 2: GTGCCCATTGGTGGTCTGGA
For B1, the indel activity in data set [1] was 2.72 fold of WT; in data set [2] it was 2.68 fold of WT.
